Source: the Human Domainome abundance scans (Beltran et al. 2025)
± gives the uncertainty stated by the source.

B1: Chromodomain-helicase-DNA-binding protein 5, residues 411 to 463; numbered along this chain, Q8TDI0 (parent)
chain: EEDDHMEFCRVCKDGGELLCCDACPSSYHLHCLNPPLPEIPNGEWLCPRCTCP

Variants of: B1
Assay: abundance fitness (aPCA) (normalised: wild type 0, dead -1); higher = more abundant; growth selection in yeast, the domain comes from the species named
Conditions: Homo sapiens
Work on V11M yielded an abundance fitness of -0.008 ± 0.058.
With V11G the abundance fitness was 0.046 ± 0.053.
Work on V11W yielded an abundance fitness of -0.193 ± 0.052.
V11D gave an abundance fitness of 0.062 ± 0.081.
Work on V11Q yielded an abundance fitness of -0.012 ± 0.1.
Variant V11K has an abundance fitness of 0.122 ± 0.09.
V11C gave an abundance fitness of -0.275 ± 0.11.
In the case of V11R, the abundance fitness is reported as -0.113 ± 0.058.
With V11L the abundance fitness was -0.1 ± 0.053.
P35I gave an abundance fitness of -0.183 ± 0.068.
For P35F, the abundance fitness was -0.24 ± 0.049.
With P35D the abundance fitness was -0.246 ± 0.079.
For P35G, the abundance fitness was -0.182 ± 0.046.
With P35H the abundance fitness was -0.353 ± 0.1.
Variant P35E has an abundance fitness of 0.034 ± 0.079.
Variant P35A has an abundance fitness of -0.299 ± 0.057.
P35V gave an abundance fitness of -0.145 ± 0.07.
In the case of C20T, the abundance fitness is reported as 0.123 ± 0.073.
With C20F the abundance fitness was -0.05 ± 0.08.
In the case of C20H, the abundance fitness is reported as -0.065 ± 0.094.
C20S gave an abundance fitness of -0.008 ± 0.055.
C20G showed an abundance fitness of 0.116 ± 0.052.
G16S showed an abundance fitness of -0.023 ± 0.11.
Work on G16D yielded an abundance fitness of -0.003 ± 0.14.
G16L gave an abundance fitness of -0.28 ± 0.078.
C50D showed an abundance fitness of -0.4 ± 0.062.
In the case of C50Q, the abundance fitness is reported as -0.619 ± 0.049.
With C50F the abundance fitness was -0.756 ± 0.093.
C50A gave an abundance fitness of -0.628 ± 0.055.
Variant C50H has an abundance fitness of 0.008 ± 0.058.
Variant C50W has an abundance fitness of -0.477 ± 0.066.
C50K gave an abundance fitness of -0.598 ± 0.065.
C50V gave an abundance fitness of -0.675 ± 0.057.
With P38S the abundance fitness was -0.13 ± 0.08.
Variant P38T has an abundance fitness of -0.198 ± 0.31.
Variant P38M has an abundance fitness of -0.563 ± 0.44.
P38C gave an abundance fitness of -0.63 ± 0.43.
Variant P36Q has an abundance fitness of 0.089 ± 0.1.
P36K showed an abundance fitness of 0.088 ± 0.11.
In the case of P36S, the abundance fitness is reported as -0.023 ± 0.066.
In the case of P36C, the abundance fitness is reported as -0.084 ± 0.088.
C32K showed an abundance fitness of -0.66 ± 0.14.
In the case of C32I, the abundance fitness is reported as -0.979 ± 0.19.
C32P showed an abundance fitness of -0.638 ± 0.14.
In the case of N34S, the abundance fitness is reported as 0.097 ± 0.06.
N34H showed an abundance fitness of -0.303 ± 0.2.
In the case of N34Q, the abundance fitness is reported as 0.021 ± 0.064.
N34P gave an abundance fitness of -0.463 ± 0.14.
In the case of N34V, the abundance fitness is reported as -0.067 ± 0.073.
For N34D, the abundance fitness was -0.27 ± 0.12.
For E44D, the abundance fitness was 0.051 ± 0.061.
In the case of E44C, the abundance fitness is reported as -0.026 ± 0.068.
E44N gave an abundance fitness of -0.083 ± 0.09.
E44T gave an abundance fitness of 0.02 ± 0.056.
Variant E44M has an abundance fitness of -0.312 ± 0.075.
For E44S, the abundance fitness was 0.031 ± 0.059.
In the case of E2P, the abundance fitness is reported as -0.228 ± 0.088.
For E2M, the abundance fitness was -0.669 ± 0.4.
In the case of E2H, the abundance fitness is reported as -0.261 ± 0.13.
E1N gave an abundance fitness of 0.264 ± 0.15.
E1D gave an abundance fitness of -0.455 ± 0.085.
Variant E1P has an abundance fitness of -0.803 ± 0.27.
Work on E1R yielded an abundance fitness of -0.554 ± 0.16.
Work on P48C yielded an abundance fitness of 0.023 ± 0.12.
In the case of P48V, the abundance fitness is reported as -0.24 ± 0.075.
P48F gave an abundance fitness of 0.31 ± 0.12.
P48Y showed an abundance fitness of -0.149 ± 0.059.
For P48D, the abundance fitness was 0.212 ± 0.11.
Work on P48I yielded an abundance fitness of -0.312 ± 0.24.
G43Q gave an abundance fitness of 0.039 ± 0.12.
In the case of G43D, the abundance fitness is reported as -0.238 ± 0.11.
In the case of G43R, the abundance fitness is reported as -0.074 ± 0.08.
G43I gave an abundance fitness of -0.392 ± 0.14.
G43C gave an abundance fitness of -0.112 ± 0.087.
For G43K, the abundance fitness was -0.037 ± 0.12.
Work on G43T yielded an abundance fitness of -0.142 ± 0.09.
Variant G43H has an abundance fitness of -0.148 ± 0.1.
For C52M, the abundance fitness was 0.021 ± 0.053.
C52E gave an abundance fitness of 0.126 ± 0.08.
In the case of C52N, the abundance fitness is reported as 0.222 ± 0.11.
C52S gave an abundance fitness of 0.138 ± 0.061.
For C52K, the abundance fitness was -0.198 ± 0.14.
C52Q showed an abundance fitness of -0.121 ± 0.11.
